Here are results for one molecule from publication PMC4976051 (Journal of molecular biology, 2016).

The target of the assay is T1, E. coli RecB (E. coli, UniProt P08394 1-1180).
T1 sequence (looked up): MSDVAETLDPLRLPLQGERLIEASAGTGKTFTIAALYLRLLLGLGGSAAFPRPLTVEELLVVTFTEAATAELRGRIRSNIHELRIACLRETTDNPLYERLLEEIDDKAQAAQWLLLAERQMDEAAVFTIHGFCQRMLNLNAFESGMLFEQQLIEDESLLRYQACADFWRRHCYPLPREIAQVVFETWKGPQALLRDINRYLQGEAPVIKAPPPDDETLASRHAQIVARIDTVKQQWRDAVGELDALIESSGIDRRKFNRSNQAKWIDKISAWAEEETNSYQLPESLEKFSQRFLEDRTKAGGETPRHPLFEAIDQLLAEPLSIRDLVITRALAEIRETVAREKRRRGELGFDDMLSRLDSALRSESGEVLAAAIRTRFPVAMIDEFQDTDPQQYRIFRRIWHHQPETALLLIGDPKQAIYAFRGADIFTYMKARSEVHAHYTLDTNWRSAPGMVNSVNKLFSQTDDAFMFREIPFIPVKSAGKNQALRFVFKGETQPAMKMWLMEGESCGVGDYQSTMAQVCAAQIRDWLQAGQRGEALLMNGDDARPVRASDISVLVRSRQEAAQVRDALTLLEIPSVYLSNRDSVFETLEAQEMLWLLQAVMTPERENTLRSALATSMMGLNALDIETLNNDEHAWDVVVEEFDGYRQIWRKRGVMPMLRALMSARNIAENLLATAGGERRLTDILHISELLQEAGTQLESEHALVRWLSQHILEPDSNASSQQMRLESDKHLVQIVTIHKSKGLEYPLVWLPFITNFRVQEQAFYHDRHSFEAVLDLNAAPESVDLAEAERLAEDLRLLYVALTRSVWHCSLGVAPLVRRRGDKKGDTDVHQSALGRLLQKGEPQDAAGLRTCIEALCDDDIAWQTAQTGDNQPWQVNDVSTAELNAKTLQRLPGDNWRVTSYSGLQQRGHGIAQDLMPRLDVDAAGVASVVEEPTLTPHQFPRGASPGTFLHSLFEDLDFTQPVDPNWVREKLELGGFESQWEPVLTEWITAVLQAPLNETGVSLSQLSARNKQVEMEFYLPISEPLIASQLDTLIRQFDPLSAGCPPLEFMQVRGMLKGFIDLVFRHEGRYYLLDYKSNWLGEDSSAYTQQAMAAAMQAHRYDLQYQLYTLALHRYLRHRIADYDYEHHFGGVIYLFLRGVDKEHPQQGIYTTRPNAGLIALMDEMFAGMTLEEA
Put plainly: reconstitution from purified subunits.

B1: E. coli RecC (natural protein, UniProt P07648 1-1122, looked up)
chain: MLRVYHSNRLDVLEALMEFIVERERLDDPFEPEMILVQSTGMAQWLQMTLSQKFGIAANIDFPLPASFIWDMFVRVLPEIPKESAFNKQSMSWKLMTLLPQLLEREDFTLLRHYLTDDSDKRKLFQLSSKAADLFDQYLVYRPDWLAQWETGHLVEGLGEAQAWQAPLWKALVEYTHQLGQPRWHRANLYQRFIETLESATTCPPGLPSRVFICGISALPPVYLQALQALGKHIEIHLLFTNPCRYYWGDIKDPAYLAKLLTRQRRHSFEDRELPLFRDSENAGQLFNSDGEQDVGNPLLASWGKLGRDYIYLLSDLESSQELDAFVDVTPDNLLHNIQSDILELENRAVAGVNIEEFSRSDNKRPLDPLDSSITFHVCHSPQREVEVLHDRLLAMLEEDPTLTPRDIIVMVADIDSYSPFIQAVFGSAPADRYLPYAISDRRARQSHPVLEAFISLLSLPDSRFVSEDVLALLDVPVLAARFDITEEGLRYLRQWVNESGIRWGIDDDNVRELELPATGQHTWRFGLTRMLLGYAMESAQGEWQSVLPYDESSGLIAELVGHLASLLMQLNIWRRGLAQERPLEEWLPVCRDMLNAFFLPDAETEAAMTLIEQQWQAIIAEGLGAQYGDAVPLSLLRDELAQRLDQERISQRFLAGPVNICTLMPMRSIPFKVVCLLGMNDGVYPRQLAPLGFDLMSQKPKRGDRSRRDDDRYLFLEALISAQQKLYISYIGRSIQDNSERFPSVLVQELIDYIGQSHYLPGDEALNCDESEARVKAHLTCLHTRMPFDPQNYQPGERQSYAREWLPAASQAGKAHSEFVQPLPFTLPETVPLETLQRFWAHPVRAFFQMRLQVNFRTEDSEIPDTEPFILEGLSRYQINQQLLNALVEQDDAERLFRRFRAAGDLPYGAFGEIFWETQCQEMQQLADRVIACRQPGQSMEIDLACNGVQITGWLPQVQPDGLLRWRPSLLSVAQGMQLWLEHLVYCASGGNGESRLFLRKDGEWRFPPLAAEQALHYLSQLIEGYREGMSAPLLVLPESGGAWLKTCYDAQNDAMLDDDSTLQKARTKFLQAYEGNMMVRGEGDDIWYQRLWRQLTPETMEAIVEQSQRFLLPLFRFNQS
On to B1, for which the binding result is “binds”.
